Article PMC9513094

B1: RFP-ATG8e (natural protein)
chain: MNKGSIFKMDNDFEKRKAEAGRIREKYPDRIPVIVEKAEKSEVPNIDKKKYLVPSDLTVGQFVYVIRKRIKLSAEKAIFIFVDNVLPPTGELMSSVYEDKKDEDGFLYITYSGENTFG
B2: RFP-VAP27-1 (natural protein)
chain: MSNIDLIGMSNRDLIGMSNSELLTVEPLDLQFPFELKKQISCSLYLTNKTDNNVAFKVKTTNPKKYCVRPNTGVVLPRSTCEVLVTMQAQKEAPSDMQCKDKFLLQGVIASPGVTAKEVTPEMFSKEAGHRVEETKLRVTYVAPPRPPSPVHEGSEEGSSPRASVSDNGHGSEFSFERFIVDNKAGHQENTSEARALITKLTEEKQSAIQLNNRLQRELDQLRRESKKSQSGGIPFMYVLLVGLIGLILGYIMKRT

Legend:
GFP-TRB1 (Arabidopsis) = GFP-TRB1 (Arabidopsis) (UniProt Q8VWK4); experiment: FRET or BRET; FRET-FLIM (TCSPC); GFP fusion as donor, RFP fusion as acceptor, co-expressed in plant cells; donor alone as control; 10 images a series
UniProt Q8VWK4, sequence (Q8VWK4 whole entry, the tested form may be a part): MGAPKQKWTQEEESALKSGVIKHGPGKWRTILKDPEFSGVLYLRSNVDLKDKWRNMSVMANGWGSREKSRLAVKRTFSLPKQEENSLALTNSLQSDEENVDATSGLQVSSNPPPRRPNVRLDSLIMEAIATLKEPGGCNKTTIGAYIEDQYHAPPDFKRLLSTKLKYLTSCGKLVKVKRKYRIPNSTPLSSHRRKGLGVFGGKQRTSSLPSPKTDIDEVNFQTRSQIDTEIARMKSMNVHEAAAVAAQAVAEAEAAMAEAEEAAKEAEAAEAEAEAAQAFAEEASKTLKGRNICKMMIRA

GFP-TRB2 (Arabidopsis) = GFP-TRB2 (Arabidopsis) (UniProt Q9FJW5); experiment: as above
UniProt Q9FJW5, sequence (Q9FJW5 whole entry): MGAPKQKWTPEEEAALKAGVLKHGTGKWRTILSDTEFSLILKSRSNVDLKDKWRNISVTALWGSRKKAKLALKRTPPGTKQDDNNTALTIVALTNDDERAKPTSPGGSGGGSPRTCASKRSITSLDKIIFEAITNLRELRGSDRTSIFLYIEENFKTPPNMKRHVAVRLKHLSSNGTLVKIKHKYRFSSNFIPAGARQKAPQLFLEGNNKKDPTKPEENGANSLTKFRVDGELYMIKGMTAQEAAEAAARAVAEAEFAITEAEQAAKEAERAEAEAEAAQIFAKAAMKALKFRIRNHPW

Row | Binder | fluorescence lifetime of the GFP donor in the presence of the RFP acceptor (GFP-TRB1 (Arabidopsis)) | fluorescence lifetime of the GFP donor in the presence of the RFP acceptor (GFP-TRB2 (Arabidopsis))
1 | B1 | 2.3 ns | 
2 | B2 | 2.31 ns | 2.21 ns
